For series [1], the target named is T1, CTC1;STN1;TEN1;POLA1 (p180);POLA2 (p70);PRIM1 (p49);PRIM2 (p58) (human;human;human;human;human;human;huma …, UniProt Q2NKJ3;Q9H668;Q86WV5;P09884;Q14181;P49642;P49643 …, ||||||). Put plainly: cryo-EM.
In series [2] the target is T1, CTC1;STN1;TEN1;POLA1 (p180);POLA2 …. Put plainly: cryo-EM. The source holds these as a separate data set.
Series [3] has the same target. Nature of the series: negative-stain EM.

The values below come from PMC10268231 (Nature, 2021).

Consider TTAGGGTTAGGGTTAGGGTTAGGGTTAGGGTTAGGG (ssDNA) [6xTEL], for which the binding result in series [1] is “binds”.

As to TTAGGGTTAGGGTTAGGG (ssDNA) [3xTEL], the binding result in series [2] was “binds”.

Take TTAGGGTTAGGGTTA (ssDNA) [(TTAGGG)2TTA 15-nt template]: in series [3], the binding result was “binds”.
